94 variants from the supplement of paper PMC10567573 can be followed below.

B1: STX11 (parent)
chain: FQRAMHDYNQAEMKQRDNCKIRIQ
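Note: lentivirally expressed fusions sorted by FACS into six bins by GFP to DsRed ratio, PSI derived from sequencing read proportions per bin multiplied by bin number.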

The variants in this series derive from B1. The experiment in a line: protein stability index of a GFP-peptide fusion (GPS, HEK-293T) (PSI 1-6); higher = more stable. As to conditions: c terminus: a fixed tail appended.
Consider FQRAMHDYNQAEMIQRDNCKIRIQ [K14I], for which the protein stability index was 2.3.
The result for FQRAMHDYNQAEMPQRDNCKIRIQ [K14P] reads 2.85; that for FQRAMHDYNQAEMSQRDNCKIRIQ [K14S], 2.48; that for FQRAMHDYNQAEMFQRDNCKIRIQ [K14F], 2.91.
On to FQRAMHDYNQAEMVQRDNCKIRIQ [K14V], for which the protein stability index stood at 2.48.
The result for FQRAMHDYNQAEMGQRDNCKIRIQ [K14G] reads 3.11; that for FQRAMHDYNQAEMTQRDNCKIRIQ [K14T], 2.69; that for FQRAMHDYNQAEMCQRDNCKIRIQ [K14C], 3.08.
Take FQRAMHDYNQAEMRQRDNCKIRIQ [K14R]: the protein stability index came out at 2.18.
Regarding FQRAMHDYNQAEMWQRDNCKIRIQ [K14W], the protein stability index turned out to be 2.86.
FQRAMHDYNQAEMAQRDNCKIRIQ [K14A]: the protein stability index worked out at 2.98.
For FQRAMHDYNQAEMDQRDNCKIRIQ [K14D], the protein stability index is 3.08.
The result for FQRAMHDYNQAEMEQRDNCKIRIQ [K14E] reads 3.93; that for FQRAMHDYNQAEMLQRDNCKIRIQ [K14L], 2.44.
Consider FQRAMHDYNQAEMYQRDNCKIRIQ [K14Y], for which the protein stability index was 2.14.
As to FQRAMHDYNQAEMHQRDNCKIRIQ [K14H], the protein stability index was 2.57.
As to FQRAMHDYNQAEMNQRDNCKIRIQ [K14N], the protein stability index worked out at 2.94.
Next, FQRAMHDYNQAEMQQRDNCKIRIQ [K14Q]: 2.4.
Regarding FQRAMHDYNQAEMMQRDNCKIRIQ [K14M], the protein stability index came to 2.82.
For FQRAMHDYNQAEMKQNDNCKIRIQ [R16N], the protein stability index was 2.7.
For FQRAMHDYNQAEMKQPDNCKIRIQ [R16P], the protein stability index was found to be 2.87.
On to FQRAMHDYNQAEMKQEDNCKIRIQ [R16E], for which the protein stability index came out at 3.04.
Regarding FQRAMHDYNQAEMKQGDNCKIRIQ [R16G], the protein stability index stood at 3.37.
The result for FQRAMHDYNQAEMKQHDNCKIRIQ [R16H] reads 2.73.
FQRAMHDYNQAEMKQVDNCKIRIQ [R16V]: the protein stability index turned out to be 2.63.
In the case of FQRAMHDYNQAEMKQMDNCKIRIQ [R16M], the protein stability index was determined as 2.46.
Take FQRAMHDYNQAEMKQTDNCKIRIQ [R16T]: the protein stability index amounted to 2.67.
Turning to FQRAMHDYNQAEMKQYDNCKIRIQ [R16Y], the protein stability index is 2.65.
For the variant FQRAMHDYNQAEMKQKDNCKIRIQ [R16K], the protein stability index turned out to be 2.81.
Turning to FQRAMHDYNQAEMKQIDNCKIRIQ [R16I], the protein stability index came to 2.34.
As to FQRAMHDYNQAEMKQQDNCKIRIQ [R16Q], the protein stability index amounted to 3.29.
FQRAMHDYNQAEMKQDDNCKIRIQ [R16D]: the protein stability index was determined as 3.28.
With FQRAMHDYNQAEMKQWDNCKIRIQ [R16W], the protein stability index stood at 2.43.
As for FQRAMHDYNQAEMKQCDNCKIRIQ [R16C], the protein stability index is 2.48.
Regarding FQRAMHDYNQAEMKQFDNCKIRIQ [R16F], the protein stability index stood at 2.28.
The result for FQRAMHDYNQAEMKQSDNCKIRIQ [R16S] reads 2.41.
For the variant FQRAMHDYNQAEMKQADNCKIRIQ [R16A], the protein stability index worked out at 3.04.
Regarding FQRAMHDYNQAEMKQLDNCKIRIQ [R16L], the protein stability index came out at 3.07.
Take FQRAMHDYNQAEMKQRKNCKIRIQ [D17K]: the protein stability index stood at 1.98.
In the case of FQRAMHDYNQAEMKQRMNCKIRIQ [D17M], the protein stability index stood at 2.
The result for FQRAMHDYNQAEMKQRFNCKIRIQ [D17F] reads 1.16.
As for FQRAMHDYNQAEMKQRSNCKIRIQ [D17S], the protein stability index worked out at 1.78.
The result for FQRAMHDYNQAEMKQRVNCKIRIQ [D17V] reads 2.73; that for FQRAMHDYNQAEMKQRPNCKIRIQ [D17P], 2.97; that for FQRAMHDYNQAEMKQRHNCKIRIQ [D17H], 2.15.
As for FQRAMHDYNQAEMKQRENCKIRIQ [D17E], the protein stability index is 2.81.
Regarding FQRAMHDYNQAEMKQRLNCKIRIQ [D17L], the protein stability index worked out at 2.1.
Turning to FQRAMHDYNQAEMKQRINCKIRIQ [D17I], the protein stability index was determined as 1.8.
For FQRAMHDYNQAEMKQRGNCKIRIQ [D17G], the protein stability index is 2.36.
Turning to FQRAMHDYNQAEMKQRCNCKIRIQ [D17C], the protein stability index turned out to be 2.09.
As to FQRAMHDYNQAEMKQRQNCKIRIQ [D17Q], the protein stability index came to 2.63.
For the variant FQRAMHDYNQAEMKQRWNCKIRIQ [D17W], the protein stability index turned out to be 1.68.
Consider FQRAMHDYNQAEMKQRTNCKIRIQ [D17T], for which the protein stability index worked out at 1.98.
With FQRAMHDYNQAEMKQRRNCKIRIQ [D17R], the protein stability index turned out to be 1.82.
Consider FQRAMHDYNQAEMKQRANCKIRIQ [D17A], for which the protein stability index stood at 2.28.
On to FQRAMHDYNQAEMKQRNNCKIRIQ [D17N], for which the protein stability index is 2.28.
For the variant FQRAMHDYCQAEMKQRDNCKIRIQ [N9C], the protein stability index worked out at 2.15.
Take FQRAMHDYIQAEMKQRDNCKIRIQ [N9I]: the protein stability index came out at 2.25.
As for FQRAMHDYPQAEMKQRDNCKIRIQ [N9P], the protein stability index worked out at 3.11.
Consider FQRAMHDYLQAEMKQRDNCKIRIQ [N9L], for which the protein stability index was determined as 2.74.
Turning to FQRAMHDYQQAEMKQRDNCKIRIQ [N9Q], the protein stability index stood at 2.64.
Consider FQRAMHDYVQAEMKQRDNCKIRIQ [N9V], for which the protein stability index was found to be 2.
For FQRAMHDYKQAEMKQRDNCKIRIQ [N9K], the protein stability index amounted to 2.29.
As for FQRAMHDYSQAEMKQRDNCKIRIQ [N9S], the protein stability index came to 2.91.
Take FQRAMHDYEQAEMKQRDNCKIRIQ [N9E]: the protein stability index was determined as 2.94.
For the variant FQRAMHDYFQAEMKQRDNCKIRIQ [N9F], the protein stability index amounted to 1.83.
On to FQRAMHDYYQAEMKQRDNCKIRIQ [N9Y], for which the protein stability index is 1.74.
In the case of FQRAMHDYTQAEMKQRDNCKIRIQ [N9T], the protein stability index is 2.79.
The result for FQRAMHDYMQAEMKQRDNCKIRIQ [N9M] reads 1.7.
As to FQRAMHDYWQAEMKQRDNCKIRIQ [N9W], the protein stability index came to 1.74.
FQRAMHDYHQAEMKQRDNCKIRIQ [N9H]: the protein stability index worked out at 2.93.
As to FQRAMHDYDQAEMKQRDNCKIRIQ [N9D], the protein stability index was determined as 2.84.
The result for FQRAMHDYGQAEMKQRDNCKIRIQ [N9G] reads 2.33; that for FQRAMHDYAQAEMKQRDNCKIRIQ [N9A], 2.47.
For FQRAMHDYRQAEMKQRDNCKIRIQ [N9R], the protein stability index is 4.08.
On to FQRAMHDYNQGEMKQRDNCKIRIQ [A11G], for which the protein stability index was determined as 3.09.
As to FQRAMHDYNQSEMKQRDNCKIRIQ [A11S], the protein stability index was found to be 2.75.
With FQRAMHDYNQREMKQRDNCKIRIQ [A11R], the protein stability index was found to be 2.79.
The result for FQRAMHDYNQQEMKQRDNCKIRIQ [A11Q] reads 2.42.
As for FQRAMHDYNQWEMKQRDNCKIRIQ [A11W], the protein stability index was found to be 2.49.
On to FQRAMHDYNQNEMKQRDNCKIRIQ [A11N], for which the protein stability index worked out at 2.44.
With FQRAMHDYNQEEMKQRDNCKIRIQ [A11E], the protein stability index is 3.22.
The result for FQRAMHDYNQTEMKQRDNCKIRIQ [A11T] reads 2.43; that for FQRAMHDYNQYEMKQRDNCKIRIQ [A11Y], 3.24; that for FQRAMHDYNQVEMKQRDNCKIRIQ [A11V], 2.79.
Next, FQRAMHDYNQKEMKQRDNCKIRIQ [A11K]: 2.6.
For FQRAMHDYNQMEMKQRDNCKIRIQ [A11M], the protein stability index stood at 2.02.
Consider FQRAMHDYNQCEMKQRDNCKIRIQ [A11C], for which the protein stability index is 2.29.
As to FQRAMHDYNQHEMKQRDNCKIRIQ [A11H], the protein stability index worked out at 2.58.
As to FQRAMHDYNQFEMKQRDNCKIRIQ [A11F], the protein stability index amounted to 2.46.
FQRAMHDYNQPEMKQRDNCKIRIQ [A11P]: the protein stability index stood at 3.19.
The result for FQRAMHDYNQLEMKQRDNCKIRIQ [A11L] reads 3.27; that for FQRAMHDYNQDEMKQRDNCKIRIQ [A11D], 3.02; that for FQRAMHDYNQIEMKQRDNCKIRIQ [A11I], 1.68.
